Biological target: the molecule itself
Experiment: native gel or EMSA

B1: recombinant His6-TAF11 (natural protein)
chain: not shown
For B1, the “stoichiometry N” value was 4.

Reference: paper PMC4560963 (Molecular cell, 2015)
